Reference: patent publication WO2021229104A1 (dated 2021)

Legend:
[1] = biological target: T1, recombinant biotinylated CD38 protein (Homo sapiens (Human), UniProt P28907 43-300, biotinylated (site not stated)); assay: BLI (Octet), biotinylated recombinant CD38 on streptavidin sensors, seven nanobody concentrations, 1:1 model
T1 construct: also called biotinylated CD38 antigen; biotin-labelled recombinant CD38 protein

[2] = biological target: T2, human CD38 receptor expressed on RPMI-8226 multiple myeloma cells and other CD38+ cell lines (human, UniProt P28907 1-300); assay: saturation binding of radiolabelled nanobody on CD38+ RPMI-8226 cells, 1 hour at 4 C
T2 construct: Endogenous CD38 on human cell lines; also called cyclic ADP-Ribose Hydrolase 1; ADPRC1

| Kd [1] [nM] | Kd [2] [nM] | Binder |
| --- | --- | --- |
| 0.7 |  | anti-CD38 nanobody 2F8 (Nb2F8) with C-terminal hexahistidine tag (VHH, also called sdAb 2F8) VHH: QVQLVESGGGSVQAGGSLRLSCAASGYTDSDYIMAWFRQAPGKEREVVATIYIGGTYIHYADSVKGRFTISRDNAENTVYLQMNNLKPEDTAMYYCAATKWRPFISTRAAEYNYWGQGTLVTVSS |
|  | 16.7 | 111In-DTPA-Nb2F8 (untagged Nb2F8 conjugated to CHX-A''-DTPA and labelled with Indium-111) (VHH, CHX-A''-DTPA conjugated to the free epsilon-amino groups of lysines; chelated Indium-111, also called m In-DTPA-Nb2F8; ul In-DTPA-Nb2F8) VHH: QVQLVESGGGSVQAGGSLRLSCAASGYTDSDYIMAWFRQAPGKEREVVATIYIGGTYIHYADSVKGRFTISRDNAENTVYLQMNNLKPEDTAMYYCAATKWRPFISTRAAEYNYWGQGTLVTVSS |
